From patent US20240360201A1 (BIOCYTOGEN PHARMACEUTICALS BEIJING, published 2024)
Each block holds one binder with its values, some of them ahead of it.

Experiments:
FcγRI-Sino = biological target: T1, FcγRI-Sino (human, UniProt P12314 16-288, limits assumed); test: SPR (Biacore T200), antibody captured on protein A sensor chip, Fc receptor as analyte; analyte range 400nm-6.25nm
T1 construct: bought; also called CD64 Protein, Human, Recombinant (His Tag)
From the text: (§1) The Fc receptors included FcγRIIB (FcγRIIB-Acro), FcγRIIA (FcγRIIA-H167-Acro), FcγRIIIA (FcγRIIIA-V176-Acro), FcγRIIIB (FcγRIIIB-NA1-Acro), FcγRI (FcγRI-Sino), and FcRn (FcRn-Acro).

FcγRIIA-H167-Acro = biological target: T2, FcγRIIA-H167-Acro (human, UniProt P12318 36-218, limits assumed); test: SPR (Biacore T200), antibody captured on protein A sensor chip, Fc receptor as analyte; analyte range 800nm-6.25nm
T2 construct: bought; His at 167; also called Human Fc gamma RIIA/CD32a (H167) Protein, His Tag
T2 sequence (looked up): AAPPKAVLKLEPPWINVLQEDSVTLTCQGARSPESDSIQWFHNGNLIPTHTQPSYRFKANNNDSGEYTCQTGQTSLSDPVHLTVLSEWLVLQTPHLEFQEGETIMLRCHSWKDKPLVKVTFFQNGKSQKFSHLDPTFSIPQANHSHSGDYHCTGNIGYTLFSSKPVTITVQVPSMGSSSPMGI
From the text: as §1

FcγRIIIB-NA1-Acro = biological target: T3, FcγRIIIB-NA1-Acro (human, UniProt O75015 17-200, limits assumed); test: as above
T3 construct: bought; also called Human Fc gamma RIIIB/CD16b (NA1) Protein, His Tag
From the text: as §1

FcγRIIIA-V176-Acro = biological target: T4, FcγRIIIA-V176-Acro (human, UniProt P08637 17-208); test: SPR (Biacore T200), antibody captured on protein A sensor chip, Fc receptor as analyte; analyte range 400nm-3.125nm
T4 construct: bought; Val at 176; also called Human Fc gamma RIIIA/CD16a (V176) Protein, His Tag
From the text: as §1

FcRn = biological target: T5, FcRn (human, UniProt P55899 24-297; P61769 21-119); test: SPR (Biacore T200), antibody captured on protein A sensor chip, FcRn-Acro as analyte; analyte range 1000nm-15.625nm
T5 construct: bought; also called FcγRn; FcRn-Acro
From the text: as §1

TGFb1 = biological target: T6, TGFb1 (Homo sapiens (Human), UniProt P01137 279-390, Active TGF-beta-1 is a disulfide-linked homodimer of this chain; one copy is given.); test: SPR; binder as capture solution, TGFb1 as analyte
T6 construct: also called TGFb1 protein

[1] = biological target: T7, 6×Histidine-tagged human PD-L1 protein (hPDL1-His) (human, UniProt Q9NZQ7 19-238); test: SPR Biacore T200; binder captured on protein A chip, target as analyte
T7 construct: also called hPL1-His; His-tagged human PD-L1

[2] = biological target: T7, 6×Histidine-tagged human PD-L1 protein …; test: as above; remark: listed apart in the source
[3] = biological target: T7, 6×Histidine-tagged human PD-L1 protein …; test: SPR Biacore T200; binder captured on protein A chip, hPL1-His 1.5625-200 nM as analyte
Procedure: Dissociation was monitored for 400 seconds. The chip was regenerated after the last injection of each titration with Glycine (pH 2.0, 30 μL/min for 12 seconds). As a person of ordinary skill in the art would understand, the same method with appropriate adjustments for parameters (e.g., fusion protein concentration) was performed for each tested fusion protein.
Kinetic association rates (kon) and dissociation rates (koff) were obtained simultaneously by fitting the data globally to a 1:1 Langmuir binding model (Karlsson, R. Roos, H. Fagerstam, L. Petersson, B., 1994. Methods Enzymology 6. 99-110) using Biacore™ T200 Evaluation Software 3.0. Affinities were calculated from the quotient of the kinetic rate constants (KD=koff/kon). […] Non-specific effects were not observed.

[4] = biological target: T8, His-tagged recombinant mouse IL12RB2 protein (mIL12R-B2-His) (mouse, UniProt P97378 24-637, limits assumed); test: SPR Biacore T200; binder captured on protein A chip, target as analyte
T8 construct: bought
T8 sequence (looked up): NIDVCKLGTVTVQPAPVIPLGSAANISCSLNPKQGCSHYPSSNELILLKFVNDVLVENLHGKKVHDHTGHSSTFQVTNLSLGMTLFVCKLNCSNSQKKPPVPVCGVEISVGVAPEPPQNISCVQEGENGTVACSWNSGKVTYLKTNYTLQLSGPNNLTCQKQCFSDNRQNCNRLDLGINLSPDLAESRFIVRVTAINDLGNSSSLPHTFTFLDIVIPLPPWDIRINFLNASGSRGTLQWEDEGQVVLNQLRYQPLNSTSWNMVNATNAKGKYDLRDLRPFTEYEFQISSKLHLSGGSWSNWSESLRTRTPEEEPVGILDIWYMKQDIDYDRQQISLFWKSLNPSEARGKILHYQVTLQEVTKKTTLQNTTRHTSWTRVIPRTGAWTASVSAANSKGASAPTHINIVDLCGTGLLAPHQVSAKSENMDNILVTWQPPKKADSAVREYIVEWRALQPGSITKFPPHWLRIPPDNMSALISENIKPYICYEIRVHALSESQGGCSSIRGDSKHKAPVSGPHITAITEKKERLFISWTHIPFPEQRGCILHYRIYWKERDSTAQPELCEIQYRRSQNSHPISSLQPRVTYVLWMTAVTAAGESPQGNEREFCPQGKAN

T6 sequence (P01137 279-390 limits assumed): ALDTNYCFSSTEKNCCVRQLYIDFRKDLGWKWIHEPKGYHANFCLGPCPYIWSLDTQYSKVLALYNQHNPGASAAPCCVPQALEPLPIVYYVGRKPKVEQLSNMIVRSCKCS
T7 sequence (Q9NZQ7 19-238 limits assumed): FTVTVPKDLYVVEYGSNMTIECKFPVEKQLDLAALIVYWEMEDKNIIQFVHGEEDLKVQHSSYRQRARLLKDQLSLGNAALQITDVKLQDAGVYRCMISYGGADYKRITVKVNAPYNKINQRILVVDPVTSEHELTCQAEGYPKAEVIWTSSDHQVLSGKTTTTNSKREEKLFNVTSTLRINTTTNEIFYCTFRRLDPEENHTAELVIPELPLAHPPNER
T1 sequence (P12314 16-288 limits assumed): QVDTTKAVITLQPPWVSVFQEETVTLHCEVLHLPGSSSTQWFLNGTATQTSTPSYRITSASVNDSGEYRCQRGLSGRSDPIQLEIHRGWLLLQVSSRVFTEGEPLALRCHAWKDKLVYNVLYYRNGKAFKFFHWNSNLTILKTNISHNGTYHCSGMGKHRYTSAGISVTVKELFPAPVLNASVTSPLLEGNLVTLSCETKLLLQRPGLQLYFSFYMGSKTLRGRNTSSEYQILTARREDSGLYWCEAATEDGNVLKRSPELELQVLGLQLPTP
T4 sequence (P08637 17-208 F176V limits assumed): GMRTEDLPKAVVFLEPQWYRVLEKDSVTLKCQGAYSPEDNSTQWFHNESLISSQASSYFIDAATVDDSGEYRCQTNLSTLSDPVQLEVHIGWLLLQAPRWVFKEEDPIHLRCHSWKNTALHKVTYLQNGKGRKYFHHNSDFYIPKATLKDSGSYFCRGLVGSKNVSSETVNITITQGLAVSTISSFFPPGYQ
T3 sequence (O75015 other isoform, or with tags, fused parts or gaps limits assumed): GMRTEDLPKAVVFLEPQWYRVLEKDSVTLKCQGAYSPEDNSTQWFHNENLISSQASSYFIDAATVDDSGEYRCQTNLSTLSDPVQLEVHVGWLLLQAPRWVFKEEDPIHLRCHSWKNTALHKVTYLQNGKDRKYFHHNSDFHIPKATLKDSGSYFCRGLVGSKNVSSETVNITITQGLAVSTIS

B2: M7824 (antibody, human IgG1, lambda)
heavy: not shown
light: QSALTQPASVSGSPGQSITISCTGTSSDVGGYNYVSWYQQHPGKAPKLMIYDVSNRPSGVSNRFSGSKSGNTASLTISGLQAEDEADYYCSSYTSSSTRVFGTGTKVTVLGQPKANPTVTLFPPSSEELQANKATLVCLISDFYPGAVTVAWKADGSPVKAGVETTKPSKQSNNKYAASSYLSLTPEQWKSHRSYSCQVTHEGSTVEKTVAPTECS
notes: Extracellular domain of TGFbR2 linked at the C terminal of the Fc of the anti-PDL1 antibody; also called bifunctional anti-PD-L1/TGFβ Trap fusion protein
Kd (TGFb1): 83 nM
koff (TGFb1): 0.00852 s⁻¹
kon (TGFb1): 103000 M⁻¹ s⁻¹

B4: 3F2-mIL12-3A (antibody, IgG1)
heavy: QVQLQESGPGLVKPSETLSLTCTVSGYSITSGYNWHWIRQFPGNGLEWMGYIHHSSITNYNPSLKSRITISRDTSKNQFSLKLSSVTAADTATYYCAREGYDYDWFAYWGQGTLVTVSSASTKGPSVFPLAPSSKSTSGGTAALGCLVKDYFPEPVTVSWNSGALTSGVHTFPAVLQSSGLYSLSSVVTVPSSSLGTQTYICNVNHKPSNTKVDKKVEPKSCDKTHTCPPCPAPELLGGPSVFLFPPKPKDTLMISRTPEVTCVVVDVSHEDPEVKFNWYVDGVEVHNAKTKPREEQYNSTYRVVSVLTVLHQDWLNGKEYKCKVSNKALPAPIEKTISKAKGQPREPQVYTLPPSRDEGGGGSGGGGSVIPVSGPARCLSQSRNLLKTTDDMVKTAREKLKHYSCTAEDIDHEDITRDQTSTLKTCLPLELHKNESCLATRETSSTTRGSCLPPQKTSLMMTLCLGSIYEDLKMYQTEFQAINAALQNHNHQQIILDKGMLVAIDELMQSLNHNGETLRQKPPVGEADPYRVKMKLCILLHAFSTRVVTINRVMGYLSSAGGGGSGGGGSVSLTCLVKGFYPSDIAVEWESNGQPENNYKTTPPVLDSDGSFFLYSKLTVDKSRWQQGNVFSCSVMHEALHNHYTQKSLSLSPGK
light: DIVLTQSPDFQSVTPKEKVTITCRASQSISNNLHWYQQKPDESPKLLIKYASQSISGIPSRFSGSGSGTDFTLTINSVEAEDFAMYFCQQSKSWPFTFGQGTRLEIKRTVAAPSVFIFPPSDEQLKSGTASVVCLLNNFYPREAKVQWKVDNALQSGNSQESVTEQDSKDSTYSLSSTLTLSKADYEKHKVYACEVTHQGLSSPVTKSFNRGEC
chain: MWELEKDVYVVEVDWTPDAPGETVNLTCDTPEEDDITWTSDQRHGVIGSGKTLTITVKEFLDAGQYTCHKGGETLSHSHLLLHKKENGIWSTEILKNFKNKTFLKCEAPNYSGRFTCSWLVQRNMDLKFNIKSSSSSPDSRAVTCGMASLSAEKVTLDQRDYEKYSVSCQEDVTCPTAEETLPIELALEARQQNKYENYSTSFFIRDIIKPDPPKNLQMKPLKNSQVEVSWEYPDSWSTPHSYFSLKFFVRIQRKKEKMKETEEGCNQKGAFLVEKTSTEVQCKGGNVCVQAQDRYYNSSCSKWACVPCRVRS
notes: IgG1; IL12b co-expressed; also called 3F2-mIL12-3A-IgG1
Kd [4]: 58.5 nM
koff [4]: 0.00335 s⁻¹
kon [4]: 57300 M⁻¹ s⁻¹
Kd [3]: 0.382 nM
koff [3]: 0.000952 s⁻¹
kon [3]: 2.49e+06 M⁻¹ s⁻¹

B5: 3F2-mIL12-3A-mIFNa4 (antibody, IgG1)
heavy: QVQLQESGPGLVKPSETLSLTCTVSGYSITSGYNWHWIRQFPGNGLEWMGYIHHSSITNYNPSLKSRITISRDTSKNQFSLKLSSVTAADTATYYCAREGYDYDWFAYWGQGTLVTVSSASTKGPSVFPLAPSSKSTSGGTAALGCLVKDYFPEPVTVSWNSGALTSGVHTFPAVLQSSGLYSLSSVVTVPSSSLGTQTYICNVNHKPSNTKVDKKVEPKSCDKTHTCPPCPAPELLGGPSVFLFPPKPKDTLMISRTPEVTCVVVDVSHEDPEVKFNWYVDGVEVHNAKTKPREEQYNSTYRVVSVLTVLHQDWLNGKEYKCKVSNKALPAPIEKTISKAKGQPREPQVYTLPPSRDEGGGGSGGGGSVIPVSGPARCLSQSRNLLKTTDDMVKTAREKLKHYSCTAEDIDHEDITRDQTSTLKTCLPLELHKNESCLATRETSSTTRGSCLPPQKTSLMMTLCLGSIYEDLKMYQTEFQAINAALQNHNHQQIILDKGMLVAIDELMQSLNHNGETLRQKPPVGEADPYRVKMKLCILLHAFSTRVVTINRVMGYLSSAGGGGSGGGGSVSLTCLVKGFYPSDIAVEWESNGQPENNYKTTPPVLDSDGSFFLYSKLTVDKSRWQQGNVFSCSVMHEALHNHYTQKSLSLSPGKGGGGSGGGGSGGGGSGGGGSCDLPHTYNLGNKRALTVLEEMRRLPPLSCLKDRKDFGFPLEKVDNQQIQKAQAILVLRDLTQQILNLFTSKDLSATWNATLLDSFCNDLHQQLNDLKACVMQEPPLTQEDSLLAVRTYFHRITVYLRKKKHSLCAWEVIRAEVWRALSSSTNLLARLSEEKE
light: B4 light
chain: B4 chain
notes: IgG1; 3F2-mIL12-3A with mIFNa4 linked to each heavy chain C-terminus
Kd [4]: 56.5 nM
koff [4]: 0.00299 s⁻¹
kon [4]: 52900 M⁻¹ s⁻¹
Kd [3]: 0.396 nM
koff [3]: 0.000922 s⁻¹
kon [3]: 2.33e+06 M⁻¹ s⁻¹

The remaining lines, values ahead:

Kd (FcγRI-Sino): 194 nM
Kd (FcγRIIA-H167-Acro): 426 nM
Kd (FcγRIIIB-NA1-Acro): 479 nM
Kd (FcγRIIIA-V176-Acro): 75.5 nM
Kd (FcRn): 527 nM
B1: PDL1-mIL7-3A (antibody, human IgG1, lambda)
heavy: EVQLLESGGGLVQPGGSLRLSCAASGFTFSSYIMMWVRQAPGKGLEWVSSIYPSGGITFYADTVKGRFTISRDNSKNTLYLQMNSLRAEDTAVYYCARIKLGTVTTVDYWGQGTLVTVSSASTKGPSVFPLAPSSKSTSGGTAALGCLVKDYFPEPVTVSWNSGALTSGVHTFPAVLQSSGLYSLSSVVTVPSSSLGTQTYICNVNHKPSNTKVDKKVEPKSCDKTHTCPPCPAPELLGGPSVFLFPPKPKDTLMISRTPEVTCVVVDVSHEDPEVKFNWYVDGVEVHNAKTKPREEQYNSTYRVVSVLTVLHQDWLNGKEYKCKVSNKALPAPIEKTISKAKGQPREPQVYTLPPSRDEGGGGSGGGGSECHIKDKEGKAYESVLMISIDELDKMTGTDSNCPNNEPNFFRKHVCDDTKEAAFLNRAARKLKQFLKMNISEEFNVHLLTVSQGTQTLVNCTSKEEKNVKEQKKNDACFLKRLLREIKTCWNKILKGSIGGGGSGGGGSVSLTCLVKGFYPSDIAVEWESNGQPENNYKTTPPVLDSDGSFFLYSKLTVDKSRWQQGNVFSCSVMHEALHNHYTQKSLSLSPGA
light: B2 light
notes: IgG1 immunocytokine

Kd [1]: 0.372 nM
koff [1]: 0.000652 s⁻¹
kon [1]: 1.75e+06 M⁻¹ s⁻¹
Kd [2]: 0.372 nM
koff [2]: 0.000652 s⁻¹
kon [2]: 1.75e+06 M⁻¹ s⁻¹
Kd [3]: 0.559 nM
koff [3]: 0.0013 s⁻¹
kon [3]: 2.32e+06 M⁻¹ s⁻¹
B3: PDL1-3F2 (antibody, human IgG1, kappa)
heavy: not shown
light: B4 light
notes: also called PDL1-3F2-IgG1; PDL1-3F2 IgG1
